Measured values reported in article doi:10.1101/2024.04.12.589225.

Assays:
[1] = molecular target: Aspergillus terreus glutamate dehydrogenase, wild type (Aspergillus terreus); test: crystal structure
[2] = molecular target: Aspergillus terreus glutamate dehydrogenase, wild type (Aspergillus terreus); test: cryo-EM structure
[3] = molecular target: AnGDH-Q216A (Aspergillus niger); test: SEC
[4] = molecular target: 7th_AtGDH-R246S (Aspergillus terreus); test: crystal structure
[5] = molecular target: 7th_AtGDH-R246S (Aspergillus terreus); test: SEC
[6] = molecular target: Aspergillus niger glutamate dehydrogenase, wild type (Aspergillus niger); test: cryo-EM structure
[7] = molecular target: 8th_AtGDH-A216Q (Aspergillus terreus); test: SEC
[8] = molecular target: AnGDH-S246R (Aspergillus niger); test: SEC
[9] = molecular target: 2nd_AtGDH-ΔT262-A263 (Aspergillus terreus); test: crystal structure
[10] = molecular target: 2nd_AtGDH-ΔT262-A263 (Aspergillus terreus); test: SEC

Question: For “Aspergillus terreus glutamate dehydrogenase, wild type (enzyme)”, which stoichiometry N [1] is on record?
Answer: 6

Question: And the stoichiometry N [2]?
Answer: 6

Question: How did the stoichiometry N [3] turn out when AnGDH-Q216A (enzyme) was run?
Answer: 6

Question: What does the source list for 7th_AtGDH-R246S (enzyme)?
Answer: stoichiometry N [4]: 6; stoichiometry N [5]: 6

Question: For “Aspergillus niger glutamate dehydrogenase, wild type (enzyme)”, which stoichiometry N [6] is on record?
Answer: 6

Question: With 8th_AtGDH-A216Q (enzyme) as the substance, how does the stoichiometry N [7] read?
Answer: 6

Question: With AnGDH-S246R (enzyme) as the substance, how does the stoichiometry N [8] read?
Answer: 6

Question: What does the source list for 2nd_AtGDH-ΔT262-A263 (enzyme)?
Answer: stoichiometry N [9]: 6; stoichiometry N [10]: 6
